# Results: publication PMC11749594, “Tracing TMEM106B fibril deposition in aging and Parkinson’s disease with dementia brains” (Life Medicine, 2024)
# B1: TMEM106B fibril (Type 1) extracted from the frontal cortex of case 1 of PDD (domain or fragment, human (endogenous in brain tissue), UniProt Q9NUM4 120-254, looked up)
# chain: SIDVKYIGVKSAYVSYDVQKRTIYLNITNTLNITNNNYYSVEVENITAQVQFSKTVIGKARLNNITIIGPLDMKQIDYTVPTVIAEEMSYMYDFCTLISIKVHNIVLMMQVTVTTTYFGHSEQISQERYQYVDCG
# modifications: four potentially glycosylated Asn residues
# notes: Transmembrane protein 106B (TMEM106B), human, fibril core of residues 120-254 (luminal domain); Amyloid fibril with many stacked copies of the chain; the atomic model was built as three layers; Residues 120-254 are the ordered core seen by cryo-EM; also called Transmembrane protein 106B fibril; brain-extracted TMEM106B fibril; source: extracted from postmortem human brain (frontal lobe, case 1 of …)
# Biological target: the molecule itself
# Experiment: cryo-EM structure; fibrils extracted from the frontal cortex of case 1 of PDD, pretreated with pronase for 30 min; helical reconstruction at 3.5 Å
protein,measurement,value
B1,binding result,binds
